Results on three sequences are retold here after patent US20230357838.

Like-named read-outs stand apart in the source and are kept apart here.

Data set [1] has as its system EcDa01 (Escherichia coli).
The subject of data set [2] is d22_PeDa01 (Pseudomonas entomophila).
Where [3] appears, read: 5caC at all four C of the listed strand sites.
The mark [4] stands for this setting: 5fC at all four C of the listed strand sites.

Consider “AAATTTAATTATAAAACGATCGACGACGAAATAATAAAAA (double strand) [40 bp 5caC oligo]”, for which the activity (fraction deaminated) in data set [1] (setting [3]) and in data set [2] (setting [3]) was 0 in each case.

Take “AAATTTAATTATAAAACGATCGACGACGAAATAATAAAAA (double strand) [40 bp 5fC oligo]”: the activity (fraction deaminated) in data set [1] (setting [4]) was 0.01; in data set [2] (setting [4]), 0.

With “AAATTTAATTATAAAACGATCGACGACGAAATAATAAAAA (double strand) [40 bp control C oligo]”, the activity (fraction deaminated) in data set [1] turned out to be 0.6; in data set [2], 0.14.
